Laboratory results published in US12570975B2, “Composition for diagnosis or treatment of a condition associated with increased activity of EIF4E comprising an EIF4E inhibitor” (SoVarGen Co., Ltd., priority 2019, dated 2026).

Key:
FMCD animal models = assay: Metformin treatment of FMCD animal models, video-EEG seizure analysis; assay type: in vivo, mouse
Description: In this experiment, metformin was intraperitoneally injected at a dose of […] into the FMCD animal models of Example 1 from P14 to P56 for early treatment and from P84 to P114 for late treatment.

eIF4E [1] = assay: Immunostaining for eIF4E in sheIF4E FMCD mice; assay type: in vivo, mouse; details: brain tissue at postnatal day 21
Description: For the animal model, prepared in Example 2-1, in which eIF4E was knock-downed using sheIF4E, after embryos that had been electroporated with a plasmid carrying an mTOR mutant gene at embryonic day 14 (E14), in the same manner as in U.S. Pat. No. 9,629,346, were born, the mice expressing fluorescence were screened by flashlight (Electron Microscopy Science, USA).

[2] = tested on: FMCD and epilepsy animal models (mTOR-p.C1483Y, mTOR-p.L2427P); assay: Sucrose preference test, FMCD epilepsy models; assay type: in vivo, mouse; details: mU6-sheIF4E models compared to mU6-shscramble models
Procedure: Each of mice was habituated for 3-5 days in a cage with two selectable water bottles presented. Thereafter, the mice were each placed in the same cage as the habituation cage at the day of experiment. The mice were presented with two dual bottles, one containing tap water and the other containing 1% sucrose solution. Water and sucrose solution intake was measured after 24 hours and sucrose preference was calculated according to volume of sucrose intake/total volume of fluid intake×100%.
(§1) The same sheIF4E as that described in Example 2 was used. Week 2 after sheIF4E injection, the handling was performed in the animals. Week 3 after sheIF4E injection, the animals were subjected to the behavioral tests.
The epilepsy animal models were subjected to the substantially same behavioral abnormality assay as in Example 6.
(§2) Briefly, ASO #77 was administered by ICV injection to the FMCD and epilepsy animal models were generated with the pCIG-mTOR mutant-IRES-EGFP of Example 1. ASO #77 was evaluated for therapeutic potential for neuropsychiatric disorder accompanying the FMCD epilepsy animal models in the substantially same manner as in Example 6.

[3] = tested on: FMCD and epilepsy animal models (mTOR-p.C1483Y, mTOR-p.L2427P); assay: Marble burying test, FMCD epilepsy models; assay type: in vivo, mouse; details: mU6-sheIF4E models compared to mU6-shscramble models
Procedure: A mouse was placed in the cage.
as §1, with “Experiments were performed on the FMCD and epilepsy animal models (mTOR-p.C1483Y, mTOR-p.L2427P) of Example 7-1 and the control normal animal models (mTOR-WT). The” for “The”
(§3) The epilepsy animal models were subjected to the substantially same behavioral abnormality assay as in Example 6. The results are depicted in FIGS. 28 and 29.
as §2

[4] = tested on: FMCD and epilepsy animal models (mTOR-p.C1483Y, mTOR-p.L2427P); assay type: in vivo, mouse
Procedure: (§4) Behaviors were recorded and analyzed using EthoVision XT (Noldus).
as §1, with “Experiments were performed on the FMCD and epilepsy animal models (mTOR-p.C1483Y, mTOR-p.L2427P) of Example 7-1 and the control normal animal models (mTOR-WT). The” for “The”
as §3, §2

[5] = tested on: FMCD and epilepsy animal models (mTOR-p.C1483Y, mTOR-p.L2427P); assay: Light & dark box test, FMCD epilepsy models; assay type: in vivo, mouse; details: mU6-sheIF4E models compared to mU6-shscramble models
Procedure: as §4
as §1, with “Experiments were performed on the FMCD and epilepsy animal models (mTOR-p.C1483Y, mTOR-p.L2427P) of Example 7-1 and the control normal animal models (mTOR-WT). The” for “The”
as §3, §2

ADK, IRSp53, and CREB1 = assay: Immunostaining for ADK, IRSp53 and CREB1 in sheIF4E FMCD mice; assay type: in vivo, mouse; details: mTOR p.Cys1483Tyr and p.Leu2427Pro mice, compared to shScramble mice
Description: Therefore, the present inventors performed additional immunostaining in order to investigate in vivo knockdown effect on the expression of ADK, IRSp53, and CREB1 in the FMCD mice, and confirmed significant reduced expression of the genes (FIG. 9e). In the brain tissues at postnatal day 21 from the animal models established using pCIG-MTOR mutant-IRES-GFP; mU6-sheIF4E vector in the same manner as in Examples 1-3 and 3-1, the expression of ADK, IRSp53, and CREB1 was decreased with decreasing of eIF4E expression.
In order to examine whether sheIF4E-mediated in-vivo knockdown of eIF4E led to the expression downregulation of eIF4E-sensitive genes, expression of eIF4E-sensitive genes was analyzed by immunofluorescence. The immunofluorescence results are depicted in FIG. 9e. The animal models with the sheIF4E-mediated eIF4E knockdown characteristic and the shScramble mice were substantially the same as in Example 2-1.

eIF4E [6] = assay: Western blot of eIF4E knockdown by sheIF4E in cell lysates (Neuro2A); assay type: cell-based, mouse; details: vs shScramble
Procedure: The pSicoR vector digested with HpaI and XhoI restriction enzymes was ligated with the shScramble or the sheIF4E sequence in the presence of ligase to construct pSicoR-shScramble and pSicoR-sheIF4E vectors, respectively. Neuro2A cells were cultured and transfected with pSicoR to evaluate the translational downregulation of eIF4E in the same manner as in Example 1.2.
Construction of pCIG-MTOR mutant-IRES-GFP; mU6-shScramble or pCIG-MTOR mutant-IRES-GFP; mU6-sheIF4E vector and the inhibitory activity of sheIF4E against eIF4E were identified by western blot analysis using cell lysates.

[7] = tested on: FMCD epilepsy animal models; assay: Cortical dysplasia, neuron size and synaptic spine density in sheIF4E FMCD mice; assay type: in vivo, mouse
Procedure: Then, mice born following the electroporation of Example 1-6 were analyzed for neuronal cell size and synaptic spine density. Neuronal cell size was measured in ImageJ software (http://rsbweb.nih.gov/ij/). Synaptic spines were counted using a 63× objective lens. Ten basal dendrites were acquired per subject, and measured in electroporated cells expressing a GFP reporter, using manual counting. For neuronal cell size (FIG. 12), mouse brain tissues at postnatal day 21 were acquired and the size of GFP (green)-positive mutant cells (shScramble or sheIF4E expressed) was measured. For synaptic spine density (FIG. 13), mouse brain tissues at postnatal day 21 were acquired and synaptic spines of basal dendrites were counted in GFP (green)-positive mutant cells (shScramble or sheIF4E expressed).
In addition, for cortical dysplasia (FIG. 11), mouse brain tissues at postnatal day 7 of Example 2-1 were acquired and distributions of GFP (green)-positive mutant cells (shScramble or sheIF4E expressed) in the cortex were detected (n=5 in each case. Scale bar=100 μm. Mean±SEM).

[8] = tested on: FMCD and epilepsy animal models (mTOR-p.C1483Y, mTOR-p.L2427P); assay: 3-Chamber test (social interaction), FMCD epilepsy models; assay type: in vivo, mouse; details: mU6-sheIF4E models compared to mU6-shscramble models
Procedure: The 3-Chamber test measures social interaction and preference for social novelty. This apparatus consisted of three chambers with dimensions of 12×20×26 cm for the center chamber and dimensions of 14×20×26 cm for the opposite side chambers. Each of the opposite side chambers included a plastic cage (11 cm in diameter, 2.15 cm in height) for an object or stranger mouse in a corner. This experiment consisted of three sessions of habituation (10 min), exploring object/mouse (10 min), and exploring familiar/new mouse (10 min). In the second session, a WT stranger mouse was randomly placed in a plastic cage while the opposite plastic cage was empty. The mouse was allowed to freely explore the whole apparatus. The time spent in each chamber was measured and then used for the subsequent social interaction test. In the last session, a new WT stranger was placed in the empty plastic cage.
Experiments were performed on the FMCD and epilepsy animal models (mTOR-p.C1483Y, mTOR-p.L2427P) of Example 7-1 and the control normal animal models (mTOR-WT). […]
as §2

[9] = tested on: FMCD and epilepsy animal models (mTOR-p.C1483Y, mTOR-p.L2427P); assay: Social avoidance test, FMCD epilepsy models; assay type: in vivo, mouse; details: mU6-sheIF4E models compared to mU6-shscramble models
Procedure: The arena was a black box (400×400 mm).
as §1, with “Experiments were performed on the FMCD and epilepsy animal models (mTOR-p.C1483Y, mTOR-p.L2427P) of Example 7-1 and the control normal animal models (mTOR-WT). The” for “The”
as §3, §2

[10] = tested on: FMCD animal models (mTOR p.C1483Y, mTOR p.L2427P); assay: Video seizure monitoring in FMCD animal models with sheIF4E-mediated eIF4E knockdown; assay type: in vivo, mouse
Procedure: In FMCD animal models, the onset of epilepsy starts at postnatal day 21 on average and has been completed within postnatal day 50. Video EGG monitoring was conducted from 3 weeks after birth. EGG signals were recorded for 12 hours per day three times in a week from postnatal day 21 to postnatal day 120. From the 12-hour video recordings, the number and length of seizures were measured.
From the 12-hours video recordings, the number and length of seizures were measured (FIG. 10).

CN(C)C(=N)N=C(N)N [metformin]
seizure onset (FMCD animal models; early treatment P14 to P56, intraperitoneal, 200 m/kg): prevented seizure onset | seizure frequency and duration (FMCD animal models; epilepsy animal models, FIGS. 14 and 15): reduction of seizure frequency and duration | seizure frequency (FMCD animal models; late treatment P84 to P114, intraperitoneal, 200 m/kg): suppressed seizure frequency

B1: sheIF4E: shRNA against eIF4E, sense SEQ ID NO: 203 and antisense SEQ ID NO: 204, expressed from mU6 promoter in pCIG-mTOR mutant vector (nucleic acid)
sense: TCGATTGATCTCTAAGTTTGATTTCAAGAGAATCAAACTTAGAGATCAATCGTTTTTTCTCGA
antisense: TCGAGAAAAAACGATTGATCTCTAAGTTTGATTCTCTTGAAATCAAACTTAGAGATCAATCGA
eIF4E expression in sheIF4E-expressing neurons (immunostaining) (eIF4E [1]): significantly reduced | % sucrose preference [2]: increased | number of buried marbles (repetitive behavior) [3]: increased | time spent in center (index of anxiety) ([4]; mU6-sheIF4E models compared to mU6-shscramble models): increased | dyskinesia (behavior test) ([4]; mouse, in vivo): no dyskinesia | time spent in center (residence time within the light box) [5]: increased | expression of eIF4E sensitive genes ADK, IRSp53, and CREB1 (ADK, IRSp53, and CREB1): significantly reduced | knockdown of eIF4E by western blot (eIF4E [6]): efficient knockdown | cortical dysplasia ([7]; brain tissue at postnatal day 7): remarkably reduced | defective neuronal migration ([7]; mTOR mutant mice): significantly alleviated | decreased synaptic spine density ([7]; postnatal day 21): rescued | hypertrophic soma (neuronal cell size) ([7]; postnatal day 21): rescued | time spent in sniffing zone (social ability) [8]: increased | time spent to interact with the stranger mouse (social ability and depression) [9]: increased | frequency and time of seizure ([10]; FMCD animal models in which epilepsy was generated): remarkably decreased | spontaneous seizures ([10]; FMCD epilepsy mice): almost completely rescued | animals with seizure ([10]; mTOR p.L2427P mutation, video recordings until postnatal day 120): five of 20
